Data: patent US8586530B2, “Modulation of inhibition of ferrochelatase by N-methyl protoporphyrin” (University of South Florida, priority 2006, dated 2013)

Experiments:
E. coli Δvis cells = assay: Genetic selection in E. coli: growth of Δvis transformants on NMPP-containing plates; format: cell-based, Escherichia coli; details: medium containing more than 20 μM NMPP
Description: To isolate Escherichia coli Δvis transformants harboring loop variants more tolerant to NMPP than wild-type ferrochelatase, 33 variants isolated from a library of 214 functional, ferrochelatase clones were plated on LB-ampicilin medium containing 0.2 μM, 2 μM or 20 μM NMPP. E. coli Δvis cells can only grow when hemin is added to the medium or when the cells are transformed with an active ferrochelatase expression plasmid. Transformants harboring a subset of the functional loop variants including K250N, V251L, P255R, P255G, K250M/V251L/W256Y and Q248P/S249G/250P/G252W were grown onto LB-ampicilin plates with increasing concentrations of NMPP. […] Based on this observation, the P255 variants were selected for further characterization.
Genetic Selection in E. coli. E. coli Δvis cells harboring plasmids encoding active, ferrochelatase variants isolated from a random sequence library of the loop motif were grown 16-18 h at 37° C. in LB agar medium containing 50 μg/mL of ampicillin and varying concentrations of NMPP. For the preparation of the NMPP-containing LB-ampicilin agar plates, a 2 mM stock solution of NMPP was made by dissolving NMPP in 20 mM NH4OH containing 2% Tween-20. The solution was filter-sterilized and kept at 4° C. The stock solution was diluted 100-, 1000- and 10000-fold to prepare LB-ampicilin plates containing 20 μM, 2 μM and 0.2 μM NMPP. Δvis cells transformed with wild-type ferrochelatase and functional variants were grown in LB medium containing 50 μg/mL ampicilin and 0.4% (w/v) glucose at 37° C., overnight, with shaking at 220 RPM. Each of the overnight cultures was diluted 20-fold into fresh medium and grown at 37° C. for ˜1 hr until OD600 reached ˜0.4-0.5. Subsequently, these cultures were diluted with LB medium by 10^6 and 100 μl aliquots of the diluted stock were spread on LB-ampicilin agar plates and LB-ampicilin agar plates containing NMPP at 0.2 μM, 2 μM and 20 μM, respectively. The plates were incubated at 37° C. for 16 hr, and the colonies on each plate were counted. […]

[1] = Steady-state kinetics of ferrochelatase and P255 variants; format: biochemical, murine; details: for Km: protoporphyrin, read-out: Km^PPIX
From the text: One possible explanation for these findings is that the mechanism of interaction between the enzyme and the protoporphyrin substrate differs from that for inhibitor binding. It is conceivable that the active site of ferrochelatase is optimized for interaction with the protoporphyrin substrate and retains a certain degree of plasticity towards this end. Possibly, this facilitates the induction of porphyrin deformation in the protein matrix, and in so doing, ensures the catalytic reaction to proceed. In contrast, the constraints of the active site towards NMPP are presumably more stringent than towards the protoporphyrin substrate and any alterations of the active site affect the selectivity towards NMPP. Another possible explanation, and not necessarily mutually exclusive from the former, is that mutations introduced in the active site (e.g., at the P255 position) cause an alteration of the regiospecificity of ferrochelatase, such that the mutated active site can accommodate either a regioisomer or a combination of regioisomers of NMPP different from those of the wild-type active site. It is worth noting that 1) the commercially available NMPP used in this study consists of a racemic mixture of the eight potential isomers and 2) only one NMPP isomer was identified in the crystal structure of the B. subtillis ferrochelatase.
Protein Purification. Wild-type, murine ferrochelatase and variants were over-expressed, under the control of the E. coli alkaline phosphatase promoter phoA, in BL21(DE3) cells. The purification of the recombinant proteins bearing a N-terminal penta-histidine tag, assessment of the purity by sodium dodecyl sulfate-polyacrylamide gel electrophoresis and determination of protein concentration and enzymatic activity were as described previously (Shi and Ferreira 2004).

Molecule	colony formation of Δvis cells expressing the enzyme (E. coli Δvis cells)	kcat [1] [s⁻¹]	Km [1] [µM]
P255R: murine ferrochelatase variant in which P255 was replaced with arginine (protein, UniProt P22315 54-422, looked up, variant P255R) Ferrochelatase, mitochondrial: TTKPQAQPERRKPKTGILMLNMGGPETLGEVQDFLQRLFLDRDLMTLPIQNKLAPFIAKRRTPKIQEQYRRIGGGSPIKMWTSKQGEGMVKLLDELSPATAPHKYYIGFRYVHPLTEEAIEEMERDGLERAIAFTQYPQYSCSTTGSSLNAIYRYYNEVGQKPTMKWSTIDRWPTHPLLIQCFADHILKELNHFPEEKRSEVVILFSAHSLPMSVVNRGDPYPQEVGATVHKVMEKLGYPNPYRLVWQSKVGPVRWLGPQTDEAIKGLCERGRKNILLVPIAFTSDHIETLYELDIEYSQVLAQKCGAENIRRAESLNGNPLFSKALADLVHSHIQSNKLCSTQLSLNCPLCVNPVCRKTKSFFTSQQL	could form colonies	0.13 ± 0.013	2.65 ± 0.44
P255G: murine ferrochelatase variant in which P255 was replaced with glycine (protein, UniProt P22315 54-422, looked up, variant P255G) Ferrochelatase, mitochondrial: TTKPQAQPERRKPKTGILMLNMGGPETLGEVQDFLQRLFLDRDLMTLPIQNKLAPFIAKRRTPKIQEQYRRIGGGSPIKMWTSKQGEGMVKLLDELSPATAPHKYYIGFRYVHPLTEEAIEEMERDGLERAIAFTQYPQYSCSTTGSSLNAIYRYYNEVGQKPTMKWSTIDRWPTHPLLIQCFADHILKELNHFPEEKRSEVVILFSAHSLPMSVVNRGDPYPQEVGATVHKVMEKLGYPNPYRLVWQSKVGPVGWLGPQTDEAIKGLCERGRKNILLVPIAFTSDHIETLYELDIEYSQVLAQKCGAENIRRAESLNGNPLFSKALADLVHSHIQSNKLCSTQLSLNCPLCVNPVCRKTKSFFTSQQL	could form colonies	0.0983 ± 0.0233	2.51 ± 0.8
wild-type ferrochelatase: recombinant wild-type, murine ferrochelatase with N-terminal penta-histidine tag (protein, UniProt P22315 54-422, looked up) Ferrochelatase, mitochondrial: TTKPQAQPERRKPKTGILMLNMGGPETLGEVQDFLQRLFLDRDLMTLPIQNKLAPFIAKRRTPKIQEQYRRIGGGSPIKMWTSKQGEGMVKLLDELSPATAPHKYYIGFRYVHPLTEEAIEEMERDGLERAIAFTQYPQYSCSTTGSSLNAIYRYYNEVGQKPTMKWSTIDRWPTHPLLIQCFADHILKELNHFPEEKRSEVVILFSAHSLPMSVVNRGDPYPQEVGATVHKVMEKLGYPNPYRLVWQSKVGPVPWLGPQTDEAIKGLCERGRKNILLVPIAFTSDHIETLYELDIEYSQVLAQKCGAENIRRAESLNGNPLFSKALADLVHSHIQSNKLCSTQLSLNCPLCVNPVCRKTKSFFTSQQL	could not	0.0683 ± 0.005	1.4 ± 0.2
